{
  "source": "patent US10562947B2",
  "about": "“Compositions and methods for preventing or treating diseases, conditions or processes characterized by aberrant fibroblast proliferation and extracellular matrix deposition” (MOERAE MATRIX, INC., priority 2011, dated 2020)",
  "test_in_all_cases": "Kinase Profiling Assay",
  "type_in_all_cases": "biochemical",
  "details_in_all_cases": "100 μM peptide",
  "key": {"CHK2(R145W)(h)": {"target": "CHK2(R145W)(h) (Homo sapiens, UniProt O96017, R145W)", "sequence (O96017 whole entry R145W)": "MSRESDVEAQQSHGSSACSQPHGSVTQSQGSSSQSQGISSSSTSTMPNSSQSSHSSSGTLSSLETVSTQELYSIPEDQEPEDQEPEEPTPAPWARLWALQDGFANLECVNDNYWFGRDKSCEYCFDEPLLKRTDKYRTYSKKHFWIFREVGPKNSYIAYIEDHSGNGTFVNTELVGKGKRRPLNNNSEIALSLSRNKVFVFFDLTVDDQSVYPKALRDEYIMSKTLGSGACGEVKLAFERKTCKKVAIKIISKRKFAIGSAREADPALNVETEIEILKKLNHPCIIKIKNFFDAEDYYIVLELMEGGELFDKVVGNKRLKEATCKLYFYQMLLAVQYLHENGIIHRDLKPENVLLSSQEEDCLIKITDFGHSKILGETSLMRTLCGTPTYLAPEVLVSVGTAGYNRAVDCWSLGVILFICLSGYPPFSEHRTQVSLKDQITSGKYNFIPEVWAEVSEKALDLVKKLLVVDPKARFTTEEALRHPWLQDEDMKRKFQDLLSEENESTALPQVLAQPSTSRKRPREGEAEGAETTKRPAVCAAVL", "procedure,_shortened": "(§1)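 All 266 human kinases of a profiling service were assayed in duplicate to establish whether MK2 inhibitory peptides act specifically.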"}, "CLK3(h)": {"target": "CLK3(h) (Homo sapiens, UniProt P49761)", "sequence (P49761 whole entry)": "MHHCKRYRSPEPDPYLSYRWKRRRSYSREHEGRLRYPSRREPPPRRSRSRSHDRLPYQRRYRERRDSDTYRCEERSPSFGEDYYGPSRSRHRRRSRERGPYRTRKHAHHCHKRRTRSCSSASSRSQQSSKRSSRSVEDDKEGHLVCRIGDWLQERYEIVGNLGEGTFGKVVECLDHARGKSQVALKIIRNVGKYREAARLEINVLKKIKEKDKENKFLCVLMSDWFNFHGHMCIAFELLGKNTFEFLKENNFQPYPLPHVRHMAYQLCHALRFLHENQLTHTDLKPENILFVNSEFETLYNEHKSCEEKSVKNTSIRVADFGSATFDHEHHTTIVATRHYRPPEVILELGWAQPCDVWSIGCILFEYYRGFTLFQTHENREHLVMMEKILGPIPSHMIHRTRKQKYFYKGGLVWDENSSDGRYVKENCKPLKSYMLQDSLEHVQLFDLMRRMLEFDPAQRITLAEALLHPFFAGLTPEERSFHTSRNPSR", "procedure,_shortened": "as §1"}, "CaMKIV(h)": {"target": "T1, CaMKIV(h) (Homo sapiens, UniProt Q16566)", "T1 sequence (Q16566 1-473)": "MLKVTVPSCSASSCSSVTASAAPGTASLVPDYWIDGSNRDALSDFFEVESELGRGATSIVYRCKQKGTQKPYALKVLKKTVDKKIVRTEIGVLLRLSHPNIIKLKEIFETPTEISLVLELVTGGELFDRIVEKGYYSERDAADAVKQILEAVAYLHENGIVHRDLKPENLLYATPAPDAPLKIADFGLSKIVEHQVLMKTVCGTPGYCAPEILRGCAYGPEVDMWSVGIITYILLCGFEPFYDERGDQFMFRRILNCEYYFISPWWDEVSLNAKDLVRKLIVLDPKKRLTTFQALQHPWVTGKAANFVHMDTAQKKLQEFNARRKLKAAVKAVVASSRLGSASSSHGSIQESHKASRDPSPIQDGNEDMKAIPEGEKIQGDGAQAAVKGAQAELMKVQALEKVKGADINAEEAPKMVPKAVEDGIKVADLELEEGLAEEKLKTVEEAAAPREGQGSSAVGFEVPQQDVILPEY", "procedure,_shortened": "as §1"}, "DDR2(h)": {"target": "T2, DDR2(h) (Homo sapiens, UniProt Q16832)", "T2 sequence (Q16832 22-855)": "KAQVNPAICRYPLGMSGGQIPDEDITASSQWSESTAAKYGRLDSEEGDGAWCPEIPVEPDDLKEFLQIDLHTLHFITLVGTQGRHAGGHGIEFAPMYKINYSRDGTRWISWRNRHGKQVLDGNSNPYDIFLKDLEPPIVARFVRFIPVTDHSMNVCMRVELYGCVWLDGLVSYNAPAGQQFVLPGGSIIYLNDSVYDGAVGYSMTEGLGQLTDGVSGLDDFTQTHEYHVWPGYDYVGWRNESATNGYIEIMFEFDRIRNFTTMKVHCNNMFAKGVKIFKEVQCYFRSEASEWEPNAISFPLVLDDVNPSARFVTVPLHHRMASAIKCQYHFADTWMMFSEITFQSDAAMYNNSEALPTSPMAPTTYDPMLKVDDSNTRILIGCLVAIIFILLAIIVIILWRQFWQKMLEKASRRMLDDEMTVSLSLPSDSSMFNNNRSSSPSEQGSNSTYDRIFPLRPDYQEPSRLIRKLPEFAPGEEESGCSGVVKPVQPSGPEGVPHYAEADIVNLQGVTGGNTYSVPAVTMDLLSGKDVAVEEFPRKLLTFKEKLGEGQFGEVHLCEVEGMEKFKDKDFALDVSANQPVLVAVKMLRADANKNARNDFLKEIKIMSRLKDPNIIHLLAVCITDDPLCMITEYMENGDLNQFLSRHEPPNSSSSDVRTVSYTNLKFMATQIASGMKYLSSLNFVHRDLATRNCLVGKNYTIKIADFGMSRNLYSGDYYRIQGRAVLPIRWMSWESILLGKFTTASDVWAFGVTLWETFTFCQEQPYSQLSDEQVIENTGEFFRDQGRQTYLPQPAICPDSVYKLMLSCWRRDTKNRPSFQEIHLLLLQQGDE", "procedure,_shortened": "as §1"}, "Haspin(h)": {"target": "T3, Haspin(h) (Homo sapiens, UniProt Q8TF76)", "T3 construct": "purchased Millipore", "T3 sequence (Q8TF76 1-798)": "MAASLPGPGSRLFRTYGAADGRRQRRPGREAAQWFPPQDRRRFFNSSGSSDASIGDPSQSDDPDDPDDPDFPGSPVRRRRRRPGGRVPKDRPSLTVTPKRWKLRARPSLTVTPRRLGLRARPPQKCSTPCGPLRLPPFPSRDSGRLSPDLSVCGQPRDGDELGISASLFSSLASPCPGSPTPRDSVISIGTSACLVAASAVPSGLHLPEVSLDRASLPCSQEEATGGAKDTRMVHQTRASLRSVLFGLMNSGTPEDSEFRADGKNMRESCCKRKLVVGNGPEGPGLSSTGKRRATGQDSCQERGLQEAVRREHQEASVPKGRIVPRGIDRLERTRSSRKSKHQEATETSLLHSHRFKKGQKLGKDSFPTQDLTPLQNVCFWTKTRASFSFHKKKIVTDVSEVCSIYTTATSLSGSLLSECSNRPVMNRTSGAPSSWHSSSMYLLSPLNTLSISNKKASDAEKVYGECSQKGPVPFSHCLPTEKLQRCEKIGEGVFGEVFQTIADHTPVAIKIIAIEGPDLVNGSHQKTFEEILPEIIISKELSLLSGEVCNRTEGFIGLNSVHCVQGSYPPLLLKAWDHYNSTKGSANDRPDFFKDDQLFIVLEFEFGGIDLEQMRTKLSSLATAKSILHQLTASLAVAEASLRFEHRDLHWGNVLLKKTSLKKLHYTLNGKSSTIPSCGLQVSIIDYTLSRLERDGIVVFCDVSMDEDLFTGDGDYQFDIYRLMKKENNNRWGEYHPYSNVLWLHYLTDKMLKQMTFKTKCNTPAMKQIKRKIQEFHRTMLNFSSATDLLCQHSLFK", "procedure,_shortened": "as §1"}, "IGF-1R(h), activated": {"target": "T4, IGF-1R(h), activated (Homo sapiens, UniProt P08069)", "T4 construct": "purchased Millipore", "T4 sequence (P08069 959-1367 limits assumed)": "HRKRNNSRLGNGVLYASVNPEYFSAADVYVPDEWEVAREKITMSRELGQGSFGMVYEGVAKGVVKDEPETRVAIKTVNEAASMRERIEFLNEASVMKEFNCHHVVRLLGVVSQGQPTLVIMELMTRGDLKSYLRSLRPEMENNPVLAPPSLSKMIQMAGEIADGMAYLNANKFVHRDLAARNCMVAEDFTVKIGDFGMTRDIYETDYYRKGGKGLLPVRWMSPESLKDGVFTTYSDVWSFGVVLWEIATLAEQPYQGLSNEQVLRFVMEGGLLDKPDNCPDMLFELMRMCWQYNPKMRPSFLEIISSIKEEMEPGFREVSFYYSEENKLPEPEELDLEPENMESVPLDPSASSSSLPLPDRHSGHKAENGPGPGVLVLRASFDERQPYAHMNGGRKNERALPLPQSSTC", "procedure,_shortened": "as §1"}, "JAK2(h)": {"target": "T5, JAK2(h) (Homo sapiens, UniProt O60674)", "T5 construct": "purchased Millipore", "procedure,_shortened": "as §1"}, "MSK1(h)": {"target": "MSK1(h) (Homo sapiens, UniProt O75582)", "sequence (O75582 whole entry)": "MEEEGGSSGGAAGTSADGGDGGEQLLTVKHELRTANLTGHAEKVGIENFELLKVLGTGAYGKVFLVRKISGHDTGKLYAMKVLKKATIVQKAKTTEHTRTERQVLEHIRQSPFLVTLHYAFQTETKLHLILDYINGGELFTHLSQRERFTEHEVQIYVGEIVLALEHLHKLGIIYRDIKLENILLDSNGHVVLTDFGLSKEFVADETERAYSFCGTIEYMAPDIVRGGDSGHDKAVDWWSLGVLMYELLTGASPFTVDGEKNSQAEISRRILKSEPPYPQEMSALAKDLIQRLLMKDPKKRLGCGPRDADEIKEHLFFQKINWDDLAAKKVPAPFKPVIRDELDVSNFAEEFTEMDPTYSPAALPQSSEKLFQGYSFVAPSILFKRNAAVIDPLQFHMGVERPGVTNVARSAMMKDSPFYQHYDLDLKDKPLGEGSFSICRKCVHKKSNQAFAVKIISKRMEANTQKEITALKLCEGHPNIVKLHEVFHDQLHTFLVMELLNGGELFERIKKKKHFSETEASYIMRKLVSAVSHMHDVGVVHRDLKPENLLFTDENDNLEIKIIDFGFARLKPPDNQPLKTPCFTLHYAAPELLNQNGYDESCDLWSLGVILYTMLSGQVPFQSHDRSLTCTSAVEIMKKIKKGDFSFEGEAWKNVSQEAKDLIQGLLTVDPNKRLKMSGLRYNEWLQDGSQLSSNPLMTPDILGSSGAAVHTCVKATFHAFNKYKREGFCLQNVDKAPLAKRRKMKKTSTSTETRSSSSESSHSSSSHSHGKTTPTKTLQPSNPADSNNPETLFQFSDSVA", "procedure,_shortened": "as §1"}, "PDGFRα(V561D)(h)": {"target": "PDGFRα(V561D)(h) (Homo sapiens, UniProt P16234, V561D)", "sequence (P16234 24-1089 V561D)": "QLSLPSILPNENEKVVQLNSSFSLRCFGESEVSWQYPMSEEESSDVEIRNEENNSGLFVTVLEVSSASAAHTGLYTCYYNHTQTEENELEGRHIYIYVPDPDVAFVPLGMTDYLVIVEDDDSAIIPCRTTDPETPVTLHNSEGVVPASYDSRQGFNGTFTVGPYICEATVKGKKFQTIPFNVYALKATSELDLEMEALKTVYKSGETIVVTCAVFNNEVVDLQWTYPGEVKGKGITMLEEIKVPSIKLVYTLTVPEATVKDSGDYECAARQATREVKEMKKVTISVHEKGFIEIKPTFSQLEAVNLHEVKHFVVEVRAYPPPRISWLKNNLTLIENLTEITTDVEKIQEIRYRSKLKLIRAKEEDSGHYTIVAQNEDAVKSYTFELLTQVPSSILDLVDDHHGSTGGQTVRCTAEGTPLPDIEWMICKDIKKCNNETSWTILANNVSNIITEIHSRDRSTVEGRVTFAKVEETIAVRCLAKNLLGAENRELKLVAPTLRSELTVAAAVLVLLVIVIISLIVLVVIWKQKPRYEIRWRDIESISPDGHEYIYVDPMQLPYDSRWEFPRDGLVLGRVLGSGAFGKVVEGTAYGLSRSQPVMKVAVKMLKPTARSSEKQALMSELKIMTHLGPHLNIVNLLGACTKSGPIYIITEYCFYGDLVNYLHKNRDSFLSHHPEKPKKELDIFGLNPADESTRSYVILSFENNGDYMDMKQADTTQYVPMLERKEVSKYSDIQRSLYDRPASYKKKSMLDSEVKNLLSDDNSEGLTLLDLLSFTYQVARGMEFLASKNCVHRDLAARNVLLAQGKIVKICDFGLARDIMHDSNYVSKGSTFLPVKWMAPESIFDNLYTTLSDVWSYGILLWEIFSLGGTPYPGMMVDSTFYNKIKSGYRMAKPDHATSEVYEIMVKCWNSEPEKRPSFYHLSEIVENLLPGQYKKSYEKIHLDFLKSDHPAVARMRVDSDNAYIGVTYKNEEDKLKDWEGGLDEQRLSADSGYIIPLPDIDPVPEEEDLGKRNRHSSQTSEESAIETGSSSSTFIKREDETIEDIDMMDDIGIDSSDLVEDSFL", "procedure,_shortened": "as §1"}, "Rsk3(h)": {"target": "Rsk3(h) (Homo sapiens, UniProt Q15349)", "sequence (Q15349 whole entry)": "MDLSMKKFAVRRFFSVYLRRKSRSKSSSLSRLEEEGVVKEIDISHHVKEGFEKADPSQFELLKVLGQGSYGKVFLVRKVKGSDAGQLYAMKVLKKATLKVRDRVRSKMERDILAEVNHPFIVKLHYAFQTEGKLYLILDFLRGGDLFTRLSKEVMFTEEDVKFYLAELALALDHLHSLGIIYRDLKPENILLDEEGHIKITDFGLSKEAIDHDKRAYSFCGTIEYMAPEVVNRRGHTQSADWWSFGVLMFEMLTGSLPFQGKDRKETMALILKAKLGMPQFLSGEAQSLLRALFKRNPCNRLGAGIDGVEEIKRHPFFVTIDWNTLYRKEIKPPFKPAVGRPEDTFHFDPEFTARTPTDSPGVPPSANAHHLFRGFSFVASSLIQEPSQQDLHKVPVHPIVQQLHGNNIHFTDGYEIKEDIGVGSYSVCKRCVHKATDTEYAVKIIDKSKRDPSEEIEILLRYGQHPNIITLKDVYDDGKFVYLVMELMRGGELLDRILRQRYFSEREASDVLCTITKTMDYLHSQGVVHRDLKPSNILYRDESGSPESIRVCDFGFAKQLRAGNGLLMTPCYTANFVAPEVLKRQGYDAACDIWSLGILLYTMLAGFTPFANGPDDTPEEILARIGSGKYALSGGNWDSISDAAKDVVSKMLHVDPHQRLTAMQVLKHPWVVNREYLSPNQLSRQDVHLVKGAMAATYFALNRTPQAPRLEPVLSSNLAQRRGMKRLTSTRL", "procedure,_shortened": "as §1"}},
  "data": [
    {"sequence": "HRRIKAWLKKIKALARQLGVAA (Mammalian) [MMI-0500]", "values": [
      {"measurement": "CHK2(R145W)(h) % activity", "setting": "CHK2(R145W)(h)", "value": 3, "unit": "%"},
      {"measurement": "CLK3(h) % activity", "setting": "CLK3(h)", "value": 76, "unit": "%"},
      {"measurement": "CaMKIV(h) % activity", "setting": "CaMKIV(h)", "value": "−1", "unit": "%"},
      {"measurement": "DDR2(h) % activity", "setting": "DDR2(h)", "value": 79, "unit": "%"},
      {"measurement": "Haspin(h) % activity", "setting": "Haspin(h)", "value": 25, "unit": "%"},
      {"measurement": "IGF-1R(h), activated % activity", "setting": "IGF-1R(h), activated", "value": 45, "unit": "%"},
      {"measurement": "JAK2(h) % activity", "setting": "JAK2(h)", "value": 49, "unit": "%"},
      {"measurement": "MSK1(h) % activity", "setting": "MSK1(h)", "value": 8, "unit": "%"},
      {"measurement": "PDGFRα(V561D)(h) % activity", "setting": "PDGFRα(V561D)(h)", "value": 146, "unit": "%"},
      {"measurement": "Rsk3(h) % activity", "setting": "Rsk3(h)", "value": 23, "unit": "%"}
    ]},
    {"sequence": "FAKLAARLYRKALARQLGVAA [MMI-0300]", "values": [
      {"measurement": "CHK2(R145W)(h) % activity", "setting": "CHK2(R145W)(h)", "value": 33, "unit": "%"},
      {"measurement": "CLK3(h) % activity", "setting": "CLK3(h)", "value": 61, "unit": "%"},
      {"measurement": "CaMKIV(h) % activity", "setting": "CaMKIV(h)", "value": 17, "unit": "%"},
      {"measurement": "DDR2(h) % activity", "setting": "DDR2(h)", "value": 94, "unit": "%"},
      {"measurement": "Haspin(h) % activity", "setting": "Haspin(h)", "value": 48, "unit": "%"},
      {"measurement": "IGF-1R(h), activated % activity", "setting": "IGF-1R(h), activated", "value": 80, "unit": "%"},
      {"measurement": "JAK2(h) % activity", "setting": "JAK2(h)", "value": 133, "unit": "%"},
      {"measurement": "MSK1(h) % activity", "setting": "MSK1(h)", "value": 32, "unit": "%"},
      {"measurement": "PDGFRα(V561D)(h) % activity", "setting": "PDGFRα(V561D)(h)", "value": 82, "unit": "%"},
      {"measurement": "Rsk3(h) % activity", "setting": "Rsk3(h)", "value": 76, "unit": "%"}
    ]},
    {"sequence": "YARAAARQARAKALNRQLGVA (Mammalian) [MMI-0200]", "values": [
      {"measurement": "CHK2(R145W)(h) % activity", "setting": "CHK2(R145W)(h)", "value": 81, "unit": "%"},
      {"measurement": "CLK3(h) % activity", "setting": "CLK3(h)", "value": 76, "unit": "%"},
      {"measurement": "CaMKIV(h) % activity", "setting": "CaMKIV(h)", "value": 71, "unit": "%"},
      {"measurement": "Haspin(h) % activity", "setting": "Haspin(h)", "value": 71, "unit": "%"},
      {"measurement": "IGF-1R(h), activated % activity", "setting": "IGF-1R(h), activated", "value": 94, "unit": "%"},
      {"measurement": "JAK2(h) % activity", "setting": "JAK2(h)", "value": 131, "unit": "%"},
      {"measurement": "MSK1(h) % activity", "setting": "MSK1(h)", "value": 50, "unit": "%"}
    ]},
    {"sequence": "KAFAKLAARLYRKALARQLGVAA [MMI-0400]", "values": [
      {"measurement": "CHK2(R145W)(h) % activity", "setting": "CHK2(R145W)(h)", "value": 31, "unit": "%"},
      {"measurement": "CLK3(h) % activity", "setting": "CLK3(h)", "value": 84, "unit": "%"},
      {"measurement": "CaMKIV(h) % activity", "setting": "CaMKIV(h)", "value": 18, "unit": "%"},
      {"measurement": "DDR2(h) % activity", "setting": "DDR2(h)", "value": 95, "unit": "%"},
      {"measurement": "Haspin(h) % activity", "setting": "Haspin(h)", "value": 36, "unit": "%"},
      {"measurement": "IGF-1R(h), activated % activity", "setting": "IGF-1R(h), activated", "value": 77, "unit": "%"},
      {"measurement": "MSK1(h) % activity", "setting": "MSK1(h)", "value": 28, "unit": "%"},
      {"measurement": "PDGFRα(V561D)(h) % activity", "setting": "PDGFRα(V561D)(h)", "value": 100, "unit": "%"},
      {"measurement": "Rsk3(h) % activity", "setting": "Rsk3(h)", "value": 71, "unit": "%"}
    ]}
  ]
}
